Results reported in paper PMC3229523, “Identification of Lactoferricin B Intracellular Targets Using an Escherichia coli Proteome Chip” (PLoS ONE, 2011).
Ends that are not written are not given here. * marks the point of attachment. Biotin = O=C1N[C@H]2[C@H](CS[C@H]2CCCCC(=O)*)N1

Columns and labels:
Assay in all cases: peptide or protein array; E. coli proteome chip: purified His-tagged proteins printed in duplicate on Fullmoon slides, blocked with 1% BSA; 10 nM N-terminal biotinylated LfcinB with 1% BSA, room temperature, 1 h; detected with DyLight 649-labeled streptavidin, ratio to DyLight 549-labeled anti-His antibody; ProCAT normalisation, local cut-off; triplicate chips
Settings in all cases: both partners purified
FimZ = biological target: T1, FimZ (E. coli K-12, UniProt P0AEL8 1-210)
T1 construct: FimZ, E. coli K-12
T1 sequence (looked up): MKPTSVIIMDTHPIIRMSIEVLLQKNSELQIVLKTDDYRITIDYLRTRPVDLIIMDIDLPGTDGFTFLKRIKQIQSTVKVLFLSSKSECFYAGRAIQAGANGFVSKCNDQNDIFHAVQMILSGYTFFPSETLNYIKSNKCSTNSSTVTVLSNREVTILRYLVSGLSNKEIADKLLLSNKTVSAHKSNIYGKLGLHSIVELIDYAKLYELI

YbeQ = biological target: T2, YbeQ (E. coli K-12, UniProt P77234 1-325)
T2 construct: YbeQ, E. coli K-12
T2 sequence (looked up): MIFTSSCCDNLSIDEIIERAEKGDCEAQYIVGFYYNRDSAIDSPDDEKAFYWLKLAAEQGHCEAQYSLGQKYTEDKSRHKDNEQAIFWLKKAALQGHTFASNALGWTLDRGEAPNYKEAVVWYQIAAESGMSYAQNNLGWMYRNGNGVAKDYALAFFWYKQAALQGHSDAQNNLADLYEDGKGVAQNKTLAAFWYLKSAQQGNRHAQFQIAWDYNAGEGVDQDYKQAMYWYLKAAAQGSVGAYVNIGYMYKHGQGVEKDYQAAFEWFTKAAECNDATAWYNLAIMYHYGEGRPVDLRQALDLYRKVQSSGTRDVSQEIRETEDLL

RffH = biological target: T3, RffH (E. coli K-12, UniProt P61887 1-293)
T3 construct: RffH, E. coli K-12

YqhC = biological target: T4, YqhC (E. coli K-12, UniProt Q46855 1-318)
T4 construct: YqhC, E. coli K-12
T4 sequence (looked up): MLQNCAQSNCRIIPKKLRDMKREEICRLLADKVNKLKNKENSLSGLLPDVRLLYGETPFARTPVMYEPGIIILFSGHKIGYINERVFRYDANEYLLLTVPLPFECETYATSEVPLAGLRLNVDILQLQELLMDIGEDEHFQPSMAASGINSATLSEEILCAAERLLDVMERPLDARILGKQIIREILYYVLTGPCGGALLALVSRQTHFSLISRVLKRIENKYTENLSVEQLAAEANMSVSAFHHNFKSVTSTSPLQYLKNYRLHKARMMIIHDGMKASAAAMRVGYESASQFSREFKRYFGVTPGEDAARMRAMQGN

HemK = biological target: T5, HemK (E. coli K-12, UniProt P0ACC1 1-277)
T5 construct: HemK, E. coli K-12
T5 sequence (looked up): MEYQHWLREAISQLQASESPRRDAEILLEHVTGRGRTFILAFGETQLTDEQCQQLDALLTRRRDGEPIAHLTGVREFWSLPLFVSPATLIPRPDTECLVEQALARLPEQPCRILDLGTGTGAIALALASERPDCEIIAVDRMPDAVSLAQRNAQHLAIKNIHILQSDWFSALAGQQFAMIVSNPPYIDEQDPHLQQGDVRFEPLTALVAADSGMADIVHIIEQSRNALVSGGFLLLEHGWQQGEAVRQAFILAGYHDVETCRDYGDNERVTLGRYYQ

GldA = biological target: T6, GldA (E. coli K-12, UniProt P0A9S5 1-367)
T6 construct: GldA, E. coli K-12
T6 sequence (looked up): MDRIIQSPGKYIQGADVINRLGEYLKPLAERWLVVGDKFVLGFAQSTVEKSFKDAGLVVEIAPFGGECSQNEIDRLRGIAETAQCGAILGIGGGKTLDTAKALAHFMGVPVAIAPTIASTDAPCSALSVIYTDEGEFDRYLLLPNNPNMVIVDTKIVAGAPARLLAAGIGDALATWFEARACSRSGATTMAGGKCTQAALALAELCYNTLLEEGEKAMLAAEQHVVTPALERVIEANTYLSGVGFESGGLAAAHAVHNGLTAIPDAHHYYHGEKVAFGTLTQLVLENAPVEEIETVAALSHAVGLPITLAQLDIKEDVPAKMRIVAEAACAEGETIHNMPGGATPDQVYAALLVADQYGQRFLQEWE

Measured: binding result

T3 sequence (P61887 whole entry): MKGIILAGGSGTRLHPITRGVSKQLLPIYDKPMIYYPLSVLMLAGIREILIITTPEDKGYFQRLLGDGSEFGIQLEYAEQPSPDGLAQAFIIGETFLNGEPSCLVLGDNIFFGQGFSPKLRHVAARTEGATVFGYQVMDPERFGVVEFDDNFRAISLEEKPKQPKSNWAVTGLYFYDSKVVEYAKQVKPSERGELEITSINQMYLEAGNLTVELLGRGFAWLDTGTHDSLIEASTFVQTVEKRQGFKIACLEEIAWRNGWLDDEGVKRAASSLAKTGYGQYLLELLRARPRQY

B1: N-terminal biotinylated Lactoferricin B (peptide, UniProt P24627 36-60, looked up)
peptide: Biotin-FKCRRWQWRMKKLGAPSITCVRRAF
modifications: ends and bridges not checked
notes: lactoferricin B (LfcinB), cationic antimicrobial peptide of 25 amino acids; also called biotinylated LfcinB; biotin-labeled LfcinB; source: bought: Kelowna Inc
binds: all assays above
